Data taken from article PMC8215294.

Key:
Q94AM1 = assay: SEC; purified His-tagged TOPs treated 30 min at RT with DTTred, DTTox, GSH or GSSG, purified again and dialysed; XBridge BEH200A SEC column, 50 mM sodium phosphate, 150 mM NaCl, 0.02% NaN3, pH 7.0
TOP1^C548A, Q94AM1 = molecular target: T1, TOP1^C548A, Q94AM1; assay: size-exclusion chromatography (SEC), peak area quantification; details: chain shown with the change; treatment (Ctrl or GSSG) not stated for this panel; parent: est. 38; read off a plot
T1 chain: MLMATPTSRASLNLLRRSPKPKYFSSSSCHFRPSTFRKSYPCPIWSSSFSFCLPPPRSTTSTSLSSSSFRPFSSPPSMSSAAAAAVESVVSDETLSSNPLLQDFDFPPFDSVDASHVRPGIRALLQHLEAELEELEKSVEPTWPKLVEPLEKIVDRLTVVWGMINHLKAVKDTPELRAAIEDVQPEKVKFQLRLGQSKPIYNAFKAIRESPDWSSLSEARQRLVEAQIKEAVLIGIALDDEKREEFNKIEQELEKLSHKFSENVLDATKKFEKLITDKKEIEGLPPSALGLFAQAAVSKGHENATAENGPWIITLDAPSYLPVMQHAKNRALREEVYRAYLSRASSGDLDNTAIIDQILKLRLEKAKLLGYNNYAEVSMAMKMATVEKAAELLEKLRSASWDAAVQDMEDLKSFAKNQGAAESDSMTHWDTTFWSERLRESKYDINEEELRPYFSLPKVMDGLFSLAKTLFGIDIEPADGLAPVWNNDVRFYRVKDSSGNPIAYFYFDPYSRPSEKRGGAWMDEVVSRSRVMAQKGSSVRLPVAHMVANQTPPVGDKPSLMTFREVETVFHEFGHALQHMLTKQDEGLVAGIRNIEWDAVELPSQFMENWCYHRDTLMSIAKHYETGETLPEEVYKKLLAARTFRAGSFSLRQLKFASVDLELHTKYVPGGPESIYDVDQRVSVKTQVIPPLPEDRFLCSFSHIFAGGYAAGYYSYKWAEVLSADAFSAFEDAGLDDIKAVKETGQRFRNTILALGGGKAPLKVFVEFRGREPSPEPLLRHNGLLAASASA

TOP1^C42A, Q94AM1 = molecular target: T2, TOP1^C42A, Q94AM1; assay: as above; details: chain shown with the change; treatment (Ctrl or GSSG) not stated for this panel; parent: est. 38; read off a plot
T2 chain: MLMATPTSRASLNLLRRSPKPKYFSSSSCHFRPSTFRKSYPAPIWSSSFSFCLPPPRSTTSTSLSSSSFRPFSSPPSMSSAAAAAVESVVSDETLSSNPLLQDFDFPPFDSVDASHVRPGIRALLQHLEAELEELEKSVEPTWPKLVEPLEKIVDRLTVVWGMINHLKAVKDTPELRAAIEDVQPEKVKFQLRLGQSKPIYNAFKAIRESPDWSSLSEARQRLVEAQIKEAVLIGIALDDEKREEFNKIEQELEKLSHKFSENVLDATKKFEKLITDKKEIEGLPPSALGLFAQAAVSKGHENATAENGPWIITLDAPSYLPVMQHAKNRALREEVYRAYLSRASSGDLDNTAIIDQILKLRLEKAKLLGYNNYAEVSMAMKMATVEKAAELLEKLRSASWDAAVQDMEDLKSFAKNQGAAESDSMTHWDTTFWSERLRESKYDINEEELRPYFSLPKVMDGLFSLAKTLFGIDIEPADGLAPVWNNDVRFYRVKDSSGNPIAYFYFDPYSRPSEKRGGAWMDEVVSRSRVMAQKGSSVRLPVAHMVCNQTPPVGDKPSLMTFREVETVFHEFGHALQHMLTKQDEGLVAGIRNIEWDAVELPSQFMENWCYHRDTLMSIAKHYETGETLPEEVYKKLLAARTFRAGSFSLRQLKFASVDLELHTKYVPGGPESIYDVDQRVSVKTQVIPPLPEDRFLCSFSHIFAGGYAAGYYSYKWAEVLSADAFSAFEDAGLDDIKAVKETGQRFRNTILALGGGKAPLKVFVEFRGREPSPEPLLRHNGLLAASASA

TOP1^C29A, Q94AM1 = molecular target: T3, TOP1^C29A, Q94AM1; assay: as above; details: chain shown with the change; treatment (Ctrl or GSSG) not stated for this panel; parent: est. 38; read off a plot
T3 chain: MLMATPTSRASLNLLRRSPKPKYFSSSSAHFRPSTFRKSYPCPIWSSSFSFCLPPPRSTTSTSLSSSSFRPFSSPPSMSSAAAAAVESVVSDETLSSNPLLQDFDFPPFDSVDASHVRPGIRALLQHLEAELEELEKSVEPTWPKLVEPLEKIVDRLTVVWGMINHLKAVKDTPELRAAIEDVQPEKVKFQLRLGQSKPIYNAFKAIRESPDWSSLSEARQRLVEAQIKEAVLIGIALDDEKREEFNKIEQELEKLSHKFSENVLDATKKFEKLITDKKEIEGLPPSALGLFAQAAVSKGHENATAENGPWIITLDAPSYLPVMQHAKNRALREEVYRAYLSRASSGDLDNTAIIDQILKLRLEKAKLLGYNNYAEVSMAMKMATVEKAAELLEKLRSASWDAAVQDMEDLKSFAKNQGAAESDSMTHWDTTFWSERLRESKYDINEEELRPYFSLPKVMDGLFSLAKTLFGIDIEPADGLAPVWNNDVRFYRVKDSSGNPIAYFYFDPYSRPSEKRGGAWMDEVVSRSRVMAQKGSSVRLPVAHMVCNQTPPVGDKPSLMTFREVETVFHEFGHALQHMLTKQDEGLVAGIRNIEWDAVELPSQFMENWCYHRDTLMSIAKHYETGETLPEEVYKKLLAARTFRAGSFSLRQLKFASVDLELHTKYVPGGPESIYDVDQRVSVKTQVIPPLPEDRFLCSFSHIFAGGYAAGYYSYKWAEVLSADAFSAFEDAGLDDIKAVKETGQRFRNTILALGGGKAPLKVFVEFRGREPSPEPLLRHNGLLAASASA

With “Arabidopsis thaliana thimet oligopeptidase TOP1, full-length” the “monomer/dimer ratio (SEC peak area) after DTTred or DTTox” value (Q94AM1) was “∼7/1 under both conditions”, the “monomer/dimer ratio (SEC peak area) after GSH” value (Q94AM1) was 3/1 and 2/1 post-GSH and -GSSG, respectively and the “monomer/dimer ratio (SEC peak area) after GSSG” value (Q94AM1) was 3/1 and 2/1 post-GSH and -GSSG, respectively.

B1: Arabidopsis thaliana thimet oligopeptidase TOP1, full-length, Q94AM1 C548A (protein)
chain: MLMATPTSRASLNLLRRSPKPKYFSSSSCHFRPSTFRKSYPCPIWSSSFSFCLPPPRSTTSTSLSSSSFRPFSSPPSMSSAAAAAVESVVSDETLSSNPLLQDFDFPPFDSVDASHVRPGIRALLQHLEAELEELEKSVEPTWPKLVEPLEKIVDRLTVVWGMINHLKAVKDTPELRAAIEDVQPEKVKFQLRLGQSKPIYNAFKAIRESPDWSSLSEARQRLVEAQIKEAVLIGIALDDEKREEFNKIEQELEKLSHKFSENVLDATKKFEKLITDKKEIEGLPPSALGLFAQAAVSKGHENATAENGPWIITLDAPSYLPVMQHAKNRALREEVYRAYLSRASSGDLDNTAIIDQILKLRLEKAKLLGYNNYAEVSMAMKMATVEKAAELLEKLRSASWDAAVQDMEDLKSFAKNQGAAESDSMTHWDTTFWSERLRESKYDINEEELRPYFSLPKVMDGLFSLAKTLFGIDIEPADGLAPVWNNDVRFYRVKDSSGNPIAYFYFDPYSRPSEKRGGAWMDEVVSRSRVMAQKGSSVRLPVAHMVANQTPPVGDKPSLMTFREVETVFHEFGHALQHMLTKQDEGLVAGIRNIEWDAVELPSQFMENWCYHRDTLMSIAKHYETGETLPEEVYKKLLAARTFRAGSFSLRQLKFASVDLELHTKYVPGGPESIYDVDQRVSVKTQVIPPLPEDRFLCSFSHIFAGGYAAGYYSYKWAEVLSADAFSAFEDAGLDDIKAVKETGQRFRNTILALGGGKAPLKVFVEFRGREPSPEPLLRHNGLLAASASA
B1 showed an other: percent dimer (TOP1^C548A, Q94AM1) of 18%.

B2: Arabidopsis thaliana thimet oligopeptidase TOP1, full-length, Q94AM1 C42A (protein)
chain: MLMATPTSRASLNLLRRSPKPKYFSSSSCHFRPSTFRKSYPAPIWSSSFSFCLPPPRSTTSTSLSSSSFRPFSSPPSMSSAAAAAVESVVSDETLSSNPLLQDFDFPPFDSVDASHVRPGIRALLQHLEAELEELEKSVEPTWPKLVEPLEKIVDRLTVVWGMINHLKAVKDTPELRAAIEDVQPEKVKFQLRLGQSKPIYNAFKAIRESPDWSSLSEARQRLVEAQIKEAVLIGIALDDEKREEFNKIEQELEKLSHKFSENVLDATKKFEKLITDKKEIEGLPPSALGLFAQAAVSKGHENATAENGPWIITLDAPSYLPVMQHAKNRALREEVYRAYLSRASSGDLDNTAIIDQILKLRLEKAKLLGYNNYAEVSMAMKMATVEKAAELLEKLRSASWDAAVQDMEDLKSFAKNQGAAESDSMTHWDTTFWSERLRESKYDINEEELRPYFSLPKVMDGLFSLAKTLFGIDIEPADGLAPVWNNDVRFYRVKDSSGNPIAYFYFDPYSRPSEKRGGAWMDEVVSRSRVMAQKGSSVRLPVAHMVCNQTPPVGDKPSLMTFREVETVFHEFGHALQHMLTKQDEGLVAGIRNIEWDAVELPSQFMENWCYHRDTLMSIAKHYETGETLPEEVYKKLLAARTFRAGSFSLRQLKFASVDLELHTKYVPGGPESIYDVDQRVSVKTQVIPPLPEDRFLCSFSHIFAGGYAAGYYSYKWAEVLSADAFSAFEDAGLDDIKAVKETGQRFRNTILALGGGKAPLKVFVEFRGREPSPEPLLRHNGLLAASASA
B2 showed an other: percent dimer (TOP1^C42A, Q94AM1) of 12%.

B3: Arabidopsis thaliana thimet oligopeptidase TOP1, full-length, Q94AM1 C29A (protein)
chain: MLMATPTSRASLNLLRRSPKPKYFSSSSAHFRPSTFRKSYPCPIWSSSFSFCLPPPRSTTSTSLSSSSFRPFSSPPSMSSAAAAAVESVVSDETLSSNPLLQDFDFPPFDSVDASHVRPGIRALLQHLEAELEELEKSVEPTWPKLVEPLEKIVDRLTVVWGMINHLKAVKDTPELRAAIEDVQPEKVKFQLRLGQSKPIYNAFKAIRESPDWSSLSEARQRLVEAQIKEAVLIGIALDDEKREEFNKIEQELEKLSHKFSENVLDATKKFEKLITDKKEIEGLPPSALGLFAQAAVSKGHENATAENGPWIITLDAPSYLPVMQHAKNRALREEVYRAYLSRASSGDLDNTAIIDQILKLRLEKAKLLGYNNYAEVSMAMKMATVEKAAELLEKLRSASWDAAVQDMEDLKSFAKNQGAAESDSMTHWDTTFWSERLRESKYDINEEELRPYFSLPKVMDGLFSLAKTLFGIDIEPADGLAPVWNNDVRFYRVKDSSGNPIAYFYFDPYSRPSEKRGGAWMDEVVSRSRVMAQKGSSVRLPVAHMVCNQTPPVGDKPSLMTFREVETVFHEFGHALQHMLTKQDEGLVAGIRNIEWDAVELPSQFMENWCYHRDTLMSIAKHYETGETLPEEVYKKLLAARTFRAGSFSLRQLKFASVDLELHTKYVPGGPESIYDVDQRVSVKTQVIPPLPEDRFLCSFSHIFAGGYAAGYYSYKWAEVLSADAFSAFEDAGLDDIKAVKETGQRFRNTILALGGGKAPLKVFVEFRGREPSPEPLLRHNGLLAASASA
B3 was tested, and the other: percent dimer (TOP1^C29A, Q94AM1) was 2.5%.
